Reference: patent EP4631523A2

Columns and labels:
[1] = biological target: interleukin 6 (IL-6) (UniProt P05231); assay: IL-6 binding ELISA; 25±2°C, 0 months
[2] = biological target: interleukin 6 (IL-6) (UniProt P05231); assay: IL-6 binding ELISA; 5±3°C, 6 months
[3] = biological target: interleukin 6 (IL-6) (UniProt P05231); assay: IL-6 binding ELISA; 5±3°C, 1 month
[4] = biological target: interleukin 6 (IL-6) (UniProt P05231); assay: IL-6 binding ELISA; 40±2°C, 3 months
[5] = biological target: interleukin 6 (IL-6) (UniProt P05231); assay: IL-6 binding ELISA; 5±3°C, 6 months; remark: listed apart in the source
[6] = biological target: interleukin 6 (IL-6) (UniProt P05231); assay: IL-6 binding ELISA; 40±2°C, 0 months
[7] = biological target: interleukin 6 (IL-6) (UniProt P05231); assay: IL-6 binding ELISA; 25±2°C, 1 month
[8] = biological target: interleukin 6 (IL-6) (UniProt P05231); assay: IL-6 binding ELISA; 5±3°C, 3 months
[9] = biological target: interleukin 6 (IL-6) (UniProt P05231); assay: IL-6 binding ELISA; 5±3°C, 3 months; remark: listed apart in the source
[10] = biological target: interleukin 6 (IL-6) (UniProt P05231); assay: IL-6 binding ELISA; 5±3°C, 9 months
[11] = biological target: interleukin 6 (IL-6) (UniProt P05231); assay: IL-6 binding ELISA; 5±3°C, 0 months
[12] = biological target: interleukin 6 (IL-6) (UniProt P05231); assay: IL-6 binding ELISA; 5±3°C, 3 months; remark: listed apart in the source
[13] = biological target: interleukin 6 (IL-6) (UniProt P05231); assay: IL-6 binding ELISA; 40±2°C, 3 months; remark: listed apart in the source
[14] = biological target: interleukin 6 (IL-6) (UniProt P05231); assay: IL-6 binding ELISA, relative to a Phase I DS lot; 120 mg/mL formulation without methionine, 9 months at 2 to 8°C
[15] = biological target: interleukin 6 (IL-6) (UniProt P05231); assay: IL-6 binding ELISA; 5±3°C, 1 month; remark: listed apart in the source
[16] = biological target: interleukin 6 (IL-6) (UniProt P05231); assay: IL-6 binding ELISA; 25±2°C, 0 months; remark: listed apart in the source
[17] = biological target: interleukin 6 (IL-6) (UniProt P05231); assay: IL-6 binding ELISA; 25±2°C, 3 months
[18] = biological target: interleukin 6 (IL-6) (UniProt P05231); assay: IL-6 binding ELISA; 25±2°C, 1 month; remark: listed apart in the source
[19] = biological target: interleukin 6 (IL-6) (UniProt P05231); assay: IL-6 binding ELISA; 25±2°C, 0 months; remark: listed apart in the source
[20] = biological target: interleukin 6 (IL-6) (UniProt P05231); assay: IL-6 binding ELISA; 5±3°C, 6 months; remark: listed apart in the source
[21] = biological target: interleukin 6 (IL-6) (UniProt P05231); assay: IL-6 binding ELISA; 25±2°C, 6 months
[22] = biological target: interleukin 6 (IL-6) (UniProt P05231); assay: IL-6 binding ELISA; 5±3°C, 0 months; remark: listed apart in the source
[23] = biological target: interleukin 6 (IL-6) (UniProt P05231); assay: IL-6 binding ELISA; 25±2°C, 6 months; remark: listed apart in the source
[24] = biological target: interleukin 6 (IL-6) (UniProt P05231); assay: IL-6 binding ELISA; 25±2°C, 0 months; remark: listed apart in the source
[25] = biological target: interleukin 6 (IL-6) (UniProt P05231); assay: IL-6 binding ELISA; 25±2°C, 3 months; remark: listed apart in the source
[26] = biological target: interleukin 6 (IL-6) (UniProt P05231); assay: IL-6 binding ELISA; 5±3°C, 9 months; remark: listed apart in the source
[27] = biological target: interleukin 6 (IL-6) (UniProt P05231); assay: IL-6 binding ELISA, relative to a Phase I DS lot; 50 mg/mL formulation without methionine, 12 months at 2 to 8°C
[28] = biological target: interleukin 6 (IL-6) (UniProt P05231); assay: IL-6 binding ELISA; 25±2°C, 1 month; remark: listed apart in the source
[29] = biological target: interleukin 6 (IL-6) (UniProt P05231); assay: IL-6 binding ELISA; 25±2°C, 1 month; remark: listed apart in the source
[30] = biological target: interleukin 6 (IL-6) (UniProt P05231); assay: IL-6 binding ELISA, relative to a Phase I DS lot; 50 mg/mL formulation without methionine, T0 (frozen aliquot)
[31] = biological target: interleukin 6 (IL-6) (UniProt P05231); assay: IL-6 binding ELISA; 5±3°C, 3 months; remark: listed apart in the source

Chain of UniProt P05231 (P05231 30-212 limits assumed): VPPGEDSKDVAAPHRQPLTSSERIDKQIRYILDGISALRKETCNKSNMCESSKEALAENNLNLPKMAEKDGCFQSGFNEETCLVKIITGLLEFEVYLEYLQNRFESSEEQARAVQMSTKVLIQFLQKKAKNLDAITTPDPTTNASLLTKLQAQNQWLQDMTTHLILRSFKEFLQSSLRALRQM

- IL-6 binding ELISA (% of Reference Standard) [1]: 91%
- IL-6 binding ELISA (% of Reference Standard) [2]: 95%
- IL-6 binding ELISA (% of Reference Standard) [3]: 86%
- IL-6 binding ELISA (% of Reference Standard) [4]: 86%
- IL-6 binding ELISA (% of Reference Standard) [5]: 92%
- IL-6 binding ELISA (% of Reference Standard) [6]: 94%
- IL-6 binding ELISA (% of Reference Standard) [7]: 110%
- IL-6 binding ELISA (% of Reference Standard) [8]: 93%
- IL-6 binding ELISA (% of Reference Standard) [9]: 83%
- IL-6 binding ELISA (% of Reference Standard) [10]: 98%
- IL-6 binding ELISA (% of Reference Standard) [11]: 96%
- IL-6 binding ELISA (% of Reference Standard) [12]: 85%
- IL-6 binding ELISA (% of Reference Standard) [13]: 99%
- IL-6 binding ELISA (% of assay control) [14]: 79%
- IL-6 binding ELISA (% of Reference Standard) [15]: 98%
- IL-6 binding ELISA (% of Reference Standard) [16]: 97%
- IL-6 binding ELISA (% of Reference Standard) [17]: 102%
- IL-6 binding ELISA (% of Reference Standard) [18]: 95%
- IL-6 binding ELISA (% of Reference Standard) [19]: 94%
- IL-6 binding ELISA (% of Reference Standard) [20]: 97%
- IL-6 binding ELISA (% of Reference Standard) [21]: 92%
- IL-6 binding ELISA (% of Reference Standard) [22]: 94%
- IL-6 binding ELISA (% of Reference Standard) [23]: 100%
- IL-6 binding ELISA (% of Reference Standard) [24]: 103%
- IL-6 binding ELISA (% of Reference Standard) [25]: 97%
- IL-6 binding ELISA (% of Reference Standard) [26]: 89%
- IL-6 binding ELISA (% of assay control) [27]: 89%
- IL-6 binding ELISA (% of Reference Standard) [28]: 96%
- IL-6 binding ELISA (% of Reference Standard) [29]: 98%
- IL-6 binding ELISA (% of assay control) [30]: 70%
- IL-6 binding ELISA (% of Reference Standard) [31]: 92%
B1: COR-001 antibody (antibody, human IgG1, kappa, V domains shown)
VH: EVQLVESGGGLVQPGGSLRLSCAASGFTISSNYMIWVRQAPGKGLEWVSDLYYYAGDTYYADSVKGRFTMSRDISKNTVYLQMNSLRAEDTAVYYCARWADDHPPWIDLWGRGTLVTVSS
VL: DIQMTQSPSTLSASVGDRVTITCRASQGISSWLAWYQQKPGKAPKVLIYKASTLESGVPSRFSGSGSGTEFTLTISSLQPDDFATYYCQQSWLGGSFGQGTKLEIKR
